# Measured values published in patent US20110086806A1 (published 2011).
# Molecular target: T1, recombinant human IL-23R/Fc chimera (R&D Systems) (human, UniProt Q5VWK5 24-355)
# T1 construct: Bought; also called rhIL23RFc
# T1 sequence (looked up): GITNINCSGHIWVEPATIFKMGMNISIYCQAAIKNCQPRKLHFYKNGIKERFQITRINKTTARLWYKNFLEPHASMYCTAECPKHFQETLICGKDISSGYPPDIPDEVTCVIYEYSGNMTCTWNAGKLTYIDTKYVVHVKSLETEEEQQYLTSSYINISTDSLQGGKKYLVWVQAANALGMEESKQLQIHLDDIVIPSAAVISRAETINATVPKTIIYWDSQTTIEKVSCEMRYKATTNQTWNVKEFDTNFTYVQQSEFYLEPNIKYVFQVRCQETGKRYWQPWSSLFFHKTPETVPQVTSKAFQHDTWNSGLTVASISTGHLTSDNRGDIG
# Test: SPR
# Experimental: A Biacore 3000 biosensor (GE Healthcare) was used to evaluate the interaction of human IL-23R and receptor binders. Immobilization of an anti-human IgG Fc antibody (GE Healthcare) to the CM5 chip (GE Healthcare) was performed using standard amine coupling chemistry, and this modified surface was used to capture a recombinant human IL-23R/Fc fusion protein (R&D Systems). A low-density receptor surface, less than 200 RU, was used for all of the analyses. ATRIMER™ polypeptide complex dilutions (1-500 nM) were injected over the IL-23R surface at 30 μl/min and kinetic constants were derived from the sensorgram data using the Biaevaluation software (version 3.1, GE Healthcare). Data collection was 3 minutes for the association and 5 minutes for dissociation. The anti-human IgG surface was regenerated with a 30s pulse of 3M magnesium chloride. All sensorgrams were double-referenced against an activated and blocked flow-cell as well as buffer injections.
Binder,Ka,Kd,koff,kon
"101-51-1A3 ATRIMER complex (designed binder, Forms a homotrimer through the tetranectin coiled coil; one protomer is given., not shown: C-terminal tag: His/Myc (pANA4) or HA-StrepII (pANA10)) EPPTQKPKKIVNAKKDVVNTKMFEELKSRLDTLAQEVALLKEQQALQTVCLKGTKVHMKCFLAFTQTKTFHEASEDCISRGGTLSTPQTGSENDALYEYLRQSVGNEAEIWLGLNGSALTNTWVDMTGARIAYKNWEHQPVYQPGGGWGVFGENCAVLSGAANGKWFDKRCRDQLPYICQFGIV",1.77e+09 M⁻¹,0.565 nM,0.000262 s⁻¹,463000 M⁻¹ s⁻¹
"101-51-1A6 ATRIMER complex (designed binder, Forms a homotrimer through the tetranectin coiled coil; one protomer is given., not shown: C-terminal tag: His/Myc (pANA4) or HA-StrepII (pANA10)) EPPTQKPKKIVNAKKDVVNTKMFEELKSRLDTLAQEVALLKEQQALQTVCLKGTKVHMKCFLAFTQTKTFHEASEDCISRGGTLSTPQTGSENDALYEYLRQSVGNEAEIWLGLNGSALTNTWVDMTGARIAYKNWENNLSAQPRGGFGYFGENCAVLSGAANGKWFDKRCRDQLPYICQFGIV",1.34e+09 M⁻¹,0.746 nM,0.000415 s⁻¹,557000 M⁻¹ s⁻¹
"101-51-1A5 ATRIMER complex (designed binder, Forms a homotrimer through the tetranectin coiled coil; one protomer is given., not shown: C-terminal tag: His/Myc (pANA4) or HA-StrepII (pANA10)) EPPTQKPKKIVNAKKDVVNTKMFEELKSRLDTLAQEVALLKEQQALQTVCLKGTKVHMKCFLAFTQTKTFHEASEDCISRGGTLSTPQTGSENDALYEYLRQSVGNEAEIWLGLNGSALTNTWVDMTGARIAYKNWENGHEPQPRGGFGYFGENCAVLSGAANGKWFDKRCRDQLPYICQFGIV",1.71e+09 M⁻¹,0.584 nM,0.000289 s⁻¹,495000 M⁻¹ s⁻¹

# Molecular target: T1, recombinant human IL-23R/Fc chimera …
# Test: competition ELISA vs IL-23
# Experimental: Assays were performed generally as follows. Individual wells in Immulon HB2 plates were incubated overnight at 4° C. with 100 μL PBS containing 100 ng of an anti-human IgG Fc (R&D MAB 110 clone 97924). Plates were washed five times with PBS/0.05% Tween 20, and wells were incubated for 1.5 h at RT with 100 μL each of PBS containing 50 ng of recombinant human IL-23R/Fc. […] Competitor was included at a final concentration of 1 μg/mL. After incubation, plates were washed as described and wells were incubated for 40 min at RT with 100 μL each of PBS containing a 1:5000 dilution of streptavidin-HRP conjugate (Pierce catalog no. 21130). After washing, wells were incubated with 100 μL each of TMB (BioFX Lab catalog no. TMBH-1000-0) for up to 30 min at RT. Reactions were stopped with an equal volume of 0.2 M sulfuric acid.
row,Binder,Ratio IC50 to 056-53.H4E IC50
1,"101-51-1A3 ATRIMER complex (designed binder, Forms a homotrimer through the tetranectin coiled coil; one protomer is given., not shown: C-terminal tag: His/Myc (pANA4) or HA-StrepII (pANA10)) EPPTQKPKKIVNAKKDVVNTKMFEELKSRLDTLAQEVALLKEQQALQTVCLKGTKVHMKCFLAFTQTKTFHEASEDCISRGGTLSTPQTGSENDALYEYLRQSVGNEAEIWLGLNGSALTNTWVDMTGARIAYKNWEHQPVYQPGGGWGVFGENCAVLSGAANGKWFDKRCRDQLPYICQFGIV",1.6
2,"101-51-1A6 ATRIMER complex (designed binder, Forms a homotrimer through the tetranectin coiled coil; one protomer is given., not shown: C-terminal tag: His/Myc (pANA4) or HA-StrepII (pANA10)) EPPTQKPKKIVNAKKDVVNTKMFEELKSRLDTLAQEVALLKEQQALQTVCLKGTKVHMKCFLAFTQTKTFHEASEDCISRGGTLSTPQTGSENDALYEYLRQSVGNEAEIWLGLNGSALTNTWVDMTGARIAYKNWENNLSAQPRGGFGYFGENCAVLSGAANGKWFDKRCRDQLPYICQFGIV",2.6
3,"101-51-1A5 ATRIMER complex (designed binder, Forms a homotrimer through the tetranectin coiled coil; one protomer is given., not shown: C-terminal tag: His/Myc (pANA4) or HA-StrepII (pANA10)) EPPTQKPKKIVNAKKDVVNTKMFEELKSRLDTLAQEVALLKEQQALQTVCLKGTKVHMKCFLAFTQTKTFHEASEDCISRGGTLSTPQTGSENDALYEYLRQSVGNEAEIWLGLNGSALTNTWVDMTGARIAYKNWENGHEPQPRGGFGYFGENCAVLSGAANGKWFDKRCRDQLPYICQFGIV",1
4,"105-20-2F10 ATRIMER complex (designed binder, not shown: C-terminal tag: His/Myc (pANA4) or HA-StrepII (pANA10)) EPPTQKPKKIVNAKKDVVNTKMFEELKSRLDTLAQEVALLKEQQALQTVCLKGTKVHMKCFLAFTQTKTFHEASEDCISRGGTLSTPQTGSENDALYEYLRQSVGNEAEIWLGLNGSARTDTWVDMTGARIAYKNWETEITAQPDGGFGYFGENCAVLSGAANGKWFDKRCRDQLPYICQFGIV",4.2
5,"105-61-4G3 ATRIMER complex (designed binder, also called 61-p4G3) EPPTQKPKKIVNAKKDVVNTKMFEELKSRLDTLAQEVALLKEQQALQTVCLKGTKVHMKCFLAFTQTKTFHEASEDCISRGGTLSTPQTGSENDALYEYLRQSVGNEAEIWLGLNGSLRTDTWVDMTGARIAYKNWETEITAQPDGGFGVFGENCAVLSGAANGKWFDKRCRDQLPYICQFGIV",0.8
6,"105-08-2H12 ATRIMER complex (designed binder, not shown: small tags and cut ends) EPPTQKPKKIVNAKKDVVNTKMFEELKSRLDTLAQEVALLKEQQALQTVCLKGTKVHMKCFLAFTQTKTFHEASEDCISRGGTLSTPQTGSENDALYEYLRQSVGNEAEIWLGLNGSPRTETWVDMTGARIAYKNWETEITAQPDGGFGYFGENCAVLSGAANGKWFDKRCRDQLPYICQFGIV",3.3
7,105-20-1A6 ATRIMER complex (designed binder) EPPTQKPKKIVNAKKDVVNTKMFEELKSRLDTLAQEVALLKEQQALQTVCLKGTKVHMKCFLAFTQTKTFHEASEDCISRGGTLSTPQTGSENDALYEYLRQSVGNEAEIWLGLNGSAKTGTWVDMTGARIAYKNWETEITAQPDGGWGYFGENCAVLSGAANGKWFDKRCRDQLPYICQFGIV,6.6
8,"105-20-2C4a ATRIMER complex (designed binder, ATRIMER complex: homotrimer of three copies of this chain, joined by the tetranectin coiled coil, not shown: C-terminal tag: Myc/His (pANA4) or HA-StrepII (pANA10)) EPPTQKPKKIVNAKKDVVNTKMFEELKSRLDTLAQEVALLKEQQALQTVCLKGTKVHMKCFLAFTQTKTFHEASEDCISRGGTLSTPQTGSENDALYEYLRQSVGNEAEIWLGLNGSAKTDTWVDMTGARIAYKNWETEITAQPDGGWGYFGENCAVLSGAANGKWFDKRCRDQLPYICQFGIV",2.9
9,105-20-2C4b ATRIMER complex (designed binder) EPPTQKPKKIVNAKKDVVNTKMFEELKSRLDTLAQEVALLKEQQALQTVCLKGTKVHMKCFLAFTQTKTFHEASEDCISRGGTLSTPQTGSENDALYEYLRQSVGNEAEIWLGLNGSVKTDTWVDMTGARIAYKNWETEITAQPDGGWGYFGENCAVLSGAANGKWFDKRCRDQLPYICQFGIV,4.2
10,105-61-4G5 ATRIMER complex (designed binder) EPPTQKPKKIVNAKKDVVNTKMFEELKSRLDTLAQEVALLKEQQALQTVCLKGTKVHMKCFLAFTQTKTFHEASEDCISRGGTLSTPQTGSENDALYEYLRQSVGNEAEIWLGLNGSPLTNTWVDMTGARIAYKNWETEITAQPDGGFGVFGENCAVLSGAANGKWFDKRCRDQLPYICQFGIV,1
11,"105-59-3A5 ATRIMER complex (designed binder, Homotrimer of three identical chains (ATRIMER complex); one chain is given., not shown: C-terminal tag: His/Myc (pANA4) or HA-StrepII (pANA10)) EPPTQKPKKIVNAKKDVVNTKMFEELKSRLDTLAQEVALLKEQQALQTVCLKGTKVHMKCFLAFTQTKTFHEASEDCISRGGTLSTPQTGSENDALYEYLRQSVGNEAEIWLGLNGSLLTNTWVDMTGARIAYKNWETEITAQPDGGFGVFGENCAVLSGAANGKWFDKRCRDQLPYICQFGIV",1.2
12,105-59-3B5 ATRIMER complex (designed binder) EPPTQKPKKIVNAKKDVVNTKMFEELKSRLDTLAQEVALLKEQQALQTVCLKGTKVHMKCFLAFTQTKTFHEASEDCISRGGTLSTPQTGSENDALYEYLRQSVGNEAEIWLGLNGSPITDTWVDMTGARIAYKNWETEITAQPDGGFGVFGENCAVLSGAANGKWFDKRCRDQLPYICQFGIV,0.8
13,"105-08-2H11 ATRIMER complex (designed binder, not shown: C-terminal tag: His/Myc (pANA4) or HA-StrepII (pANA10)) EPPTQKPKKIVNAKKDVVNTKMFEELKSRLDTLAQEVALLKEQQALQTVCLKGTKVHMKCFLAFTQTKTFHEASEDCISRGGTLSTPQTGSENDALYEYLRQSVGNEAEIWLGLNGSPRTDTWVDMTGARIAYKNWETEITAQPDGGWGYFGENCAVLSGAANGKWFDKRCRDQLPYICQFGIV",4.3
14,105-78-2D1 ATRIMER complex (designed binder) EPPTQKPKKIVNAKKDVVNTKMFEELKSRLDTLAQEVALLKEQQALQTVCLKGTKVHMKCFLAFTQTKTFHEASEDCISRGGTLSTPQTGSENDALYEYLRQSVGNEAEIWLGLNGSLRTHTWVDMTGARIAYKNWETEITAQPDGGFGVFGENCAVLSGAANGKWFDKRCRDQLPYICQFGIV,1.3
15,105-20-2G5 ATRIMER complex (designed binder) EPPTQKPKKIVNAKKDVVNTKMFEELKSRLDTLAQEVALLKEQQALQTVCLKGTKVHMKCFLAFTQTKTFHEASEDCISRGGTLSTPQTGSENDALYEYLRQSVGNEAEIWLGLNGSRRTDTWVDMTGARIAYKNWETEITAQPDGGWGYFGENCAVLSGAANGKWFDKRCRDQLPYICQFGIV,5.3
16,"105-20-1B4 ATRIMER complex (designed binder, ATRIMER complex: homotrimer of three copies of this chain, joined by the tetranectin coiled coil, not shown: C-terminal tag: Myc/His (pANA4) or HA-StrepII (pANA10)) EPPTQKPKKIVNAKKDVVNTKMFEELKSRLDTLAQEVALLKEQQALQTVCLKGTKVHMKCFLAFTQTKTFHEASEDCISRGGTLSTPQTGSENDALYEYLRQSVGNEAEIWLGLNGSSRTNTWVDMTGARIAYKNWETEITAQPDGGWGYFGENCAVLSGAANGKWFDKRCRDQLPYICQFGIV",3
17,105-78-2E6 ATRIMER complex (designed binder) EPPTQKPKKIVNAKKDVVNTKMFEELKSRLDTLAQEVALLKEQQALQTVCLKGTKVHMKCFLAFTQTKTFHEASEDCISRGGTLSTPQTGSENDALYEYLRQSVGNEAEIWLGLNGSLRTNTWVDMTGARIAYKNWETEITAQPDGGFGVFGENCAVLSGAANGKWFDKRCRDQLPYICQFGIV,1
18,"105-20-2C7 ATRIMER complex (designed binder, not shown: small tags and cut ends) EPPTQKPKKIVNAKKDVVNTKMFEELKSRLDTLAQEVALLKEQQALQTVCLKGTKVHMKCFLAFTQTKTFHEASEDCISRGGTLSTPQTGSENDALYEYLRQSVGNEAEIWLGLNGSVTTDTWVDMTGARIAYKNWETEITAQPDGGFGYFGENCAVLSGAANGKWFDKRCRDQLPYICQFGIV",3.5
19,"105-20-2C11 ATRIMER complex (designed binder, not shown: C-terminal tag: His/Myc (pANA4) or HA-StrepII (pANA10)) EPPTQKPKKIVNAKKDVVNTKMFEELKSRLDTLAQEVALLKEQQALQTVCLKGTKVHMKCFLAFTQTKTFHEASEDCISRGGTLSTPQTGSENDALYEYLRQSVGNEAEIWLGLNGSVRTDTWVDMTGARIAYKNWETEITAQPDGGWGYFGENCAVLSGAANGKWFDKRCRDQLPYICQFGIV",4.8
